Our source for the EC50 (pM), ELK1 luciferase reporter in L6 cells transfected with mouse FGFR4 and β-klotho and Emax (fold potentiation), ELK1 luciferase reporter in L6 cells transfected with mouse FGFR4 and β-klotho (fold potentiation) values is patent US20200390859A1.

This assay concerns the target mouse FGFR4/β-klotho complex co-expressed in rat L6 myoblast cells (mouse) (UniProt Q03142). The assay can be described thus: cell-based or functional assay.

Chain of mouse FGFR4/β-klotho complex co-expressed in rat L6 myoblast cells (mouse) (Q03142 17-799, chain 1 of 2): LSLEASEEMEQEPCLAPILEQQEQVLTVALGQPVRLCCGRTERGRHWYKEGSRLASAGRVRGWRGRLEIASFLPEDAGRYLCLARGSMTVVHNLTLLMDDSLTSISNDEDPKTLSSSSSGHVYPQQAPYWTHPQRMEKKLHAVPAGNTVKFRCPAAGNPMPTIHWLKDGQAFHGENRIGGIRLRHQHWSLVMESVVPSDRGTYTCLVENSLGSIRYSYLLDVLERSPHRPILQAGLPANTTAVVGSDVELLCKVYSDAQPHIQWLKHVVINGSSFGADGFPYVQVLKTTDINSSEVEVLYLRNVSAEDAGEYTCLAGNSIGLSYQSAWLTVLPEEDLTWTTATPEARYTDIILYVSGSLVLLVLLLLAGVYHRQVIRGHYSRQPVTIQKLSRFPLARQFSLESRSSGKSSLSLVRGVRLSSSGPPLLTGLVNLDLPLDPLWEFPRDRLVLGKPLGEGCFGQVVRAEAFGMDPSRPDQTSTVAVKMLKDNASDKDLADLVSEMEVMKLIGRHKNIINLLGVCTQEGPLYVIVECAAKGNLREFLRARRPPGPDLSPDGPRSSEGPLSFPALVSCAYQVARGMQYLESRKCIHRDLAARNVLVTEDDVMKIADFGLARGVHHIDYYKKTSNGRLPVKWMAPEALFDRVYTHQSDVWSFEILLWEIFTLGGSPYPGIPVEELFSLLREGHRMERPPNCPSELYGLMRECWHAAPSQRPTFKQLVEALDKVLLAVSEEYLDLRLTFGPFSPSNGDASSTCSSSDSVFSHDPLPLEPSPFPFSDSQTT
Chain of mouse FGFR4/β-klotho complex co-expressed in rat L6 myoblast cells (mouse) (Q99N32 whole entry, chain 2 of 2, further chain): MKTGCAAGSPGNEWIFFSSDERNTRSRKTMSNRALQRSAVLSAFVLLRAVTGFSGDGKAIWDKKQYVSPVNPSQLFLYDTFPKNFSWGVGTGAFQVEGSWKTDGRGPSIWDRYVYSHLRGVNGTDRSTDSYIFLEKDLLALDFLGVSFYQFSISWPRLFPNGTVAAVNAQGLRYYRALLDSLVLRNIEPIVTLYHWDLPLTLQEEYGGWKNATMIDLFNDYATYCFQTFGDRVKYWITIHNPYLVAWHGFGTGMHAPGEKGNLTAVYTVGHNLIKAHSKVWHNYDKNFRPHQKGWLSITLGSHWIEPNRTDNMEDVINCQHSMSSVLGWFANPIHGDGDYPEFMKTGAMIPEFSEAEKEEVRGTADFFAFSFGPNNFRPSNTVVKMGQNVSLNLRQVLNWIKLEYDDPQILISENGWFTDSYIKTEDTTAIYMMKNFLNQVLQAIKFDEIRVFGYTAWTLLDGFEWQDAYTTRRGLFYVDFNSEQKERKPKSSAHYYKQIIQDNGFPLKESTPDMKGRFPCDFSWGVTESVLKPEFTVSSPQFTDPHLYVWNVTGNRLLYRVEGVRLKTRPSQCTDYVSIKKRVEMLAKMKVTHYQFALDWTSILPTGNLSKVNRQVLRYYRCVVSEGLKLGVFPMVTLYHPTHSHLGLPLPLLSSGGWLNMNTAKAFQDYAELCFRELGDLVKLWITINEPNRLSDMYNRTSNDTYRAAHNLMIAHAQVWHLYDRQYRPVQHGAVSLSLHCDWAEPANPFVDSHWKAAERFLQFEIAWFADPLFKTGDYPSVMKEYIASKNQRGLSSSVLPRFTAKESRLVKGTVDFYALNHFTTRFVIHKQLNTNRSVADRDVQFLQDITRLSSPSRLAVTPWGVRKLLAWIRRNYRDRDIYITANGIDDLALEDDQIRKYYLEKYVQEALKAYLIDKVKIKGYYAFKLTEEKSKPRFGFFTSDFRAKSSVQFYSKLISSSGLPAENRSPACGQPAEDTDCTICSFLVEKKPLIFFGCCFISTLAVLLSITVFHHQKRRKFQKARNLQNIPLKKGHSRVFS

Turning to “FGF19 (human fibroblast growth factor 19, wild type) (from UniProt O95750 25-216) (ligand)”, the EC50 (pM), ELK1 luciferase reporter in L6 cells transfected with mouse FGFR4 and β-klotho was determined as 52.5 pM; the Emax (fold potentiation), ELK1 luciferase reporter in L6 cells transfected with mouse FGFR4 and β-klotho (fold potentiation) turned out to be 1.82.
